The values that follow come from patent US20110039788, “COMPOSITIONS, METHODS AND KITS FOR DETECTING AND TREATING CANCER” (University of Miami, published 2011).

Data set [1] deals with T1, TCF4 (TCF7L2) DNA-binding domain (UniProt Q9NQB0 Q9NQB0:265-496). As to the kind of experiment: EMSA; high affinity; 1 ug protein in 15 ul. The following applies: tags: His (pET28A), expressed in E. coli; label: 32P 5' end. The protocol: (§1) Double-stranded DNA oligonucleotides (30 mers) containing the genomic TBE sites T1-T4 with flanking sequences were 5′ end-labeled with ³²P and 5000 cpm/μl of labeled probe was incubated with 1 μg of recombinant His-TCF4 protein in a total volume of 15 μl binding buffer. For competition and supershift experiments, His-TCF4 was pre-incubated with unlabelled DNA oligonucleotides at 400-fold excess or with 1-5 μg of anti-6× His tag antibody (Abcam) for 10 minutes prior to addition of labeled probe. Samples were separated on 5% non-denaturing polyacrylamide gels for 1 h at 400V. Protein-DNA complexes were detected by phosphoimaging on a Storm 840 Scanner (Molecular Dynamics).
To elucidate the molecular pathways acting upstream of Lbh, murine Lbh genomic sequences were screened for potential transcription factor binding sites. This in silico search identified four conserved putative TCF/LEF-binding elements (TBEs) in the Lbh gene locus. Two TBEs with the consensus motif 5′-CTTTG(A/T)(A/T)-3′ were located within an enhancer region (E1)-6245 (T1) and −6195 (T2) base pairs (bp) upstream of the Lbh transcriptional start site (FIG. 1A). In addition, two consensus TBEs were found in an enhancer (E2) contained within the first intron of the Lbh gene at positions +1558 (T3) and +2145 (T4) by (FIG. 1A). To directly assay for TCF binding to these sites, electrophoretic mobility shift analysis (EMSA) was performed. Recombinant TCF4 protein bound with high affinity to all Lbh-specific TBEs (T1-T4), but not to an unspecific oligonucleotide (FIG. 1B). TCF4 binding to these sites was efficiently competed by addition of 400-fold excess of unlabeled wild-type (+) oligonucleotide as well as increasing amounts of an antibody against recombinant TCF4 protein, but not by addition of 400-fold excess of mutant (m) oligonucleotide (FIGS. 1B, C). Subsequently, cell-based reporter assays were performed to test whether the Lbh genespecific TBE sites (T1-T4) were functionally responsive to overexpression of β-catenin, which is the Wnt-inducible component of the TCF/β-catenin transcriptional complex. […]
(In general: In EMSA bound probe runs differently from free probe, usually more slowly.)

In data set [2] the target is T1, TCF4 (TCF7L2) DNA-binding domain. As to the kind of experiment: EMSA; high affinity; anti-His supershift assay. The conditions noted are these: tags: His (pET28A), expressed in E. coli; label: 32P 5' end. Here is the method:
as §1

T1 sequence (Q9NQB0 265-496, one chain of several): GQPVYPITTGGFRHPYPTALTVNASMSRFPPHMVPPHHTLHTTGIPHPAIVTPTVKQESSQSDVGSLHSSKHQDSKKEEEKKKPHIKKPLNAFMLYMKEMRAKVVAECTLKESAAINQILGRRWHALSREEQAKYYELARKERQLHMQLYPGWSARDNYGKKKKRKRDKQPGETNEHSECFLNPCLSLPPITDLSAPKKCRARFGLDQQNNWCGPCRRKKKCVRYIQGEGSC

B1: Lbh TBE T2 (dsDNA)
DNA 1: TCTTTGATAT
DNA 2: ATATCAAAGA
Consider B1, for which the binding result in data set [1] is reported as “binds”.

B2: Lbh TBE T3 (dsDNA)
DNA 1: GCTTTGAAGA
DNA 2: TCTTCAAAGC
In the case of B2, in data set [2], the binding result is listed as “binds”.

B3: Lbh TBE T4 (dsDNA)
DNA 1: ACTTTGTACT
DNA 2: AGTACAAAGT
Regarding B3, the binding result in data set [1] is listed as “binds”.

B4: Lbh TBE T1 (dsDNA)
DNA 1: CCTTTGAATC
DNA 2: GATTCAAAGG
On to B4, for which, in data set [1], the binding result is listed as “binds”.
